Data as given in patent publication US20020177126A1.

Experiments:
[1] = molecular target: RSV F glycoprotein (NUF4) (respiratory syncytial virus (RSV)) (UniProt P03420); test: BIAcore, Mab vs NUF4, 2:1
[2] = molecular target: RSV F glycoprotein (NUF4) (respiratory syncytial virus (RSV)) (UniProt P03420); test: ITC, NUF4 titrated into antibody
[3] = molecular target: RSV F glycoprotein (NUF4) (respiratory syncytial virus (RSV)) (UniProt P03420); test: BIAcore, Mab vs NUF4, 1:1
[4] = molecular target: RSV F glycoprotein (NUF4) (respiratory syncytial virus (RSV)) (UniProt P03420); test: ITC, NUF4 titrated into antibody, 35 °C

Chain of A4B4 (monoclonal antibody) (VH): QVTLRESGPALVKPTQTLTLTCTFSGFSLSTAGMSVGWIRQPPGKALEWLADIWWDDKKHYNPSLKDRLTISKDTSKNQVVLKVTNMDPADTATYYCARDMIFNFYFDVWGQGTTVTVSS
Chain of A4B4 (monoclonal antibody) (VL): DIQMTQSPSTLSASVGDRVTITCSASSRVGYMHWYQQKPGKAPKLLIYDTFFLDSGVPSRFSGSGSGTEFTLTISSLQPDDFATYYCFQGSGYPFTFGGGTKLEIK
Chain of RSV F glycoprotein (NUF4) (respiratory syncytial virus (RSV)) (P03420 26-524): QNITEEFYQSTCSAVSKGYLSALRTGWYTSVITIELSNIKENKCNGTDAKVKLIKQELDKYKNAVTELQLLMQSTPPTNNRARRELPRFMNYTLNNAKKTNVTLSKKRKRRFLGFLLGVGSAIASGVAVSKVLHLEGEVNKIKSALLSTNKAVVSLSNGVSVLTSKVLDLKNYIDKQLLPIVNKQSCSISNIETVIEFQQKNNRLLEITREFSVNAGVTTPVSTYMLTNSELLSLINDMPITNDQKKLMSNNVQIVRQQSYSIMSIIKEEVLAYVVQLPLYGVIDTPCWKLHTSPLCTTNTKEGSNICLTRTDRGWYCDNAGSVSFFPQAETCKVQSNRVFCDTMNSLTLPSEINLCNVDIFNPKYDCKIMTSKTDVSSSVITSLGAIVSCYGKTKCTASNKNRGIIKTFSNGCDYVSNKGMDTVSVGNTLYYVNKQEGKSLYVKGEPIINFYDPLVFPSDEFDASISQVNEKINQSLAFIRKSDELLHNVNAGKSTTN
Chain of SYNAGIS® (antibody) (VH): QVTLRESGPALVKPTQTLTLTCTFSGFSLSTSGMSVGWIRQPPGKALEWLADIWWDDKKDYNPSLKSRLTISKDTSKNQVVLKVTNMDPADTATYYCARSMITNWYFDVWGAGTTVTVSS
Chain of SYNAGIS® (antibody) (VL): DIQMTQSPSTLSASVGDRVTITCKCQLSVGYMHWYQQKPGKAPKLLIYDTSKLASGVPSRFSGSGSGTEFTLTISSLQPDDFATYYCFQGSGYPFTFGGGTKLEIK

| Substance | Kd [1] [nM] | koff [1] [s⁻¹] | kon [1] [M⁻¹ s⁻¹] | number in parentheses after KD (fold vs SYNAGIS) [1] [fold] | Hb in kJ mol^-1 (binding enthalpy) [2] [kJ/mol] | Kd [3] [nM] | koff [3] [s⁻¹] | kon [3] [M⁻¹ s⁻¹] | number in parentheses after KD (fold vs SYNAGIS) [3] [fold] | Ka [4] [M⁻¹] | Kd [4] [nM] |
| --- | --- | --- | --- | --- | --- | --- | --- | --- | --- | --- | --- |
| SYNAGIS® (antibody) | 312 | 0.0242 | 78000 | 1 | 71 | 8.7 | 0.00265 | 304000 | 1 | 1.23e+06 |  |
| A4B4 (monoclonal antibody) | 2 | 0.000401 | 203000 | 156 | 92.8 | 0.57 | 0.000282 | 496000 | 15 | 2.69e+08 | 3.7 |
